Values of other authors as cited in article PMC5013049.

Columns and labels:
[1] = target: ExsD (Pseudomonas aeruginosa) (UniProt Q9I321); assay: ITC
[2] = target: ExsE (Pseudomonas aeruginosa) (UniProt Q9I322); assay: ITC
UniProt Q9I322, sequence (Q9I322 whole entry): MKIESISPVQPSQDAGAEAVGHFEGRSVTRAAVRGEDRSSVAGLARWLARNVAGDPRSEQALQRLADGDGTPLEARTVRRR

UniProt Q9I321, sequence (Q9I321 whole entry): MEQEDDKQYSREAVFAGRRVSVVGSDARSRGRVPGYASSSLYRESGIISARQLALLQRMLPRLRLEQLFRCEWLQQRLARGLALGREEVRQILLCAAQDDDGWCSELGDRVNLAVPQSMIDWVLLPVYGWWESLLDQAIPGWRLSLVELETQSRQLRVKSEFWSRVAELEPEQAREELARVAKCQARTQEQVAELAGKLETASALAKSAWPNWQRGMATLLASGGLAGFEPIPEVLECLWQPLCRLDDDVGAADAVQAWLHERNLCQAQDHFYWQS

ExsC (from UniProt P26995)
Kd [1]: 18 nM | Kd [2]: 1 nM
